{"source": "paper PMC4577081", "about": "(2015)", "binders": {"B1": {"name": "mouse anti-human CD47 monoclonal antibody 5F9 (antibody, V domains shown)", "VH": "QVQLQQPGAELVKPGASVMMSCKASGYTFTNYNMHWVKQTPGQGLEWIGTIYPGNDDTSYNQKFKDKATLTADKSSSAAYMQLSSLTSEDSAVYYCARGGYRAMDYWGQGTSVTVSS", "VL": "DVLMTQTPLSLPVSLGDQASISCRSSQSIVYSNGNTYLGWYLQKPGQSPKLLIYKVSNRFSGVPDRFSGSGSGTDFTLKISRVEAEDLGVYHCFQGSHVPYTFGGGTKVEIK", "modifications": "biotin-labeled in the competition ELISA (site not stated)"}}, "biological_target": "human CD47/his fusion protein (extracellular domain of human CD47 fused to His-tag) (human)", "experiment": "SPR; monomeric hCD47"}
{"binder": "B1", "values": [{"measurement": "Kd", "result": 19.9, "unit": "nM"}]}
